# Molecular target: laminin-332 produced and deposited by iNFs and iCAFs (human (endogenous in iNFs and iCAFs)) (UniProt Q16787)
substance,measurement,value
integrin α3β1 (from UniProt P26006 33-1051; P05556 21-798) (receptor),"contraction of a collagen-I gel by iCAFs, untreated (reference)",73%
same,"contraction of a collagen-I gel by iCAFs, with BM2 (20 µg/mL)",44%
same,"contraction of a collagen-I gel by iCAFs, with lebein-1 (10 µg/mL)",34%
